Experimental data taken from IntAct's records for PubMed 30190310.

B1: Kelch repeat and BTB domain-containing protein 8 (Homo sapiens), Q8NFY9 (parent)
chain: MAASADLSKSSPTPNGIPSSDPASDAMDPFHACSILKQLKTMYDEGQLTDIVVEVDHGKTFSCHRNVLAAISPYFRSMFTSGLTESTQKEVRIVGVEAESMDLVLNYAYTSRVILTEANVQALFTAASIFQIPSIQDQCAKYMISHLDPQNSIGVFIFADHYGHQELGDRSKEYIRKKFLCVTKEQEFLQLTKDQLISILDSDDLNVDREEHVYESIIRWFEHEQNEREVHLPEIFAKCIRFPLMEDTFIEKIPPQFAQAIAKSCVEKGPSNTNGCTQRLGMTASEMIICFDAAHKHSGKKQTVPCLDIVTGRVFKLCKPPNDLREVGILVSPDNDIYIAGGYRPSSSEVSIDHKAENDFWMYDHSTNRWLSKPSLLRARIGCKLVYCCGKMYAIGGRVYEGDGRNSLKSVECYDSRENCWTTVCAMPVAMEFHNAVEYKEKIYVLQGEFFLFYEPQKDYWGFLTPMTVPRIQGLAAVYKDSIYYIAGTCGNHQRMFTVEAYDIELNKWTRKKDFPCDQSINPYLKLVLFQNKLHLFVRATQVTVEEHVFRTSRKNSLYQYDDIADQWMKVYETPDRLWDLGRHFECAVAKLYPQCLQKVL
B2: Kelch-like protein 12 (Homo sapiens), Q53G59 (parent)
chain: MGGIMAPKDIMTNTHAKSILNSMNSLRKSNTLCDVTLRVEQKDFPAHRIVLAACSDYFCAMFTSELSEKGKPYVDIQGLTASTMEILLDFVYTETVHVTVENVQELLPAACLLQLKGVKQACCEFLESQLDPSNCLGIRDFAETHNCVDLMQAAEVFSQKHFPEVVQHEEFILLSQGEVEKLIKCDEIQVDSEEPVFEAVINWVKHAKKEREESLPNLLQYVRMPLLTPRYITDVIDAEPFIRCSLQCRDLVDEAKKFHLRPELRSQMQGPRTRARLGANEVLLVVGGFGSQQSPIDVVEKYDPKTQEWSFLPSITRKRRYVASVSLHDRIYVIGGYDGRSRLSSVECLDYTADEDGVWYSVAPMNVRRGLAGATTLGDMIYVSGGFDGSRRHTSMERYDPNIDQWSMLGDMQTAREGAGLVVASGVIYCLGGYDGLNILNSVEKYDPHTGHWTNVTPMATKRSGAGVALLNDHIYVVGGFDGTAHLSSVEAYNIRTDSWTTVTSMTTPRCYVGATVLRGRLYAIAGYDGNSLLSSIECYDPIIDSWEVVTSMGTQRCDAGVCVLREK

Variants of: B1
Details: with fxl17_human FBXL17, Q9UF56
Target sequence in this assay (Q9UF56 whole entry): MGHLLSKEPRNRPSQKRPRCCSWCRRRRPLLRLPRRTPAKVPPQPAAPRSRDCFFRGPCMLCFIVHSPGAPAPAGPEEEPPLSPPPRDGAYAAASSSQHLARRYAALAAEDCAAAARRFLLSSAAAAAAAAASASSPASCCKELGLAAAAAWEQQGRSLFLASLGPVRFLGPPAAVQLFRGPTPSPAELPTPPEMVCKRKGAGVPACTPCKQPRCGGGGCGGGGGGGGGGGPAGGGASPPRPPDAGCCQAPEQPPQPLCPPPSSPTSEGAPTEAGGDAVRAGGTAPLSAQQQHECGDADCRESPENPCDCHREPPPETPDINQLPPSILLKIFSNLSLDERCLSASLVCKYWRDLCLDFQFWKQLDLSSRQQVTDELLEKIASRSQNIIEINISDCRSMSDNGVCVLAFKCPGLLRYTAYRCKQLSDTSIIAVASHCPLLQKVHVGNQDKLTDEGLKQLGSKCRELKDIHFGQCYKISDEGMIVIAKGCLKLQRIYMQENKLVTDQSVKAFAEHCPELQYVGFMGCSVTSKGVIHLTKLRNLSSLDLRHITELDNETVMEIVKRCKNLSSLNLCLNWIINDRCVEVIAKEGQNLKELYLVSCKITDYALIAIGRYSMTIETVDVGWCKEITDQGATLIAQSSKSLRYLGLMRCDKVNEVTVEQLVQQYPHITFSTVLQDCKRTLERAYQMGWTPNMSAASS

Variant | effect of a mutation on the interaction
L39A | decreasing interaction strength
L39D | disrupting interaction strength
Y43A | increasing interaction strength
Y43D | disrupting interaction strength
K40A | with no effect
K40D | increasing interaction strength

Further lines, results first:

effect of a mutation on the interaction | Variant
disrupting interaction strength | V67D
increasing interaction strength | V67A

Variants of: B2
Details: with fxl17_human FBXL17, Q9UF56
Target sequence in this assay (Q9UF56 whole entry): as above

Variant | effect of a mutation on the interaction
N24K | causing an interaction
I49A | causing an interaction
C33F | causing an interaction
R27A | causing an interaction
R27D | with no effect
C33F;A60K | with no effect
R27A;A60K | with no effect
N24K;A60K | with no effect

Next, values leading:

effect of a mutation on the interaction | Variant
with no effect | S67A
disrupting interaction strength | S67E
causing an interaction | I49D
causing an interaction | V50A
with no effect | V50A;A60K

Variants of: B2
Details: with cul3_human CUL3, Q13618

effect of a mutation on the interaction | Variant
with no effect | V50A
